The source of these data is paper PMC4755828 (Nature chemical biology, 2016).

Data set [1] is described as follows: Intracellular concentration by LC-MS/MS. Format: in vitro ADME. The settings on record: human, PC3 cells.
For data set [2], the system named is PC3 cells. As to the kind of experiment: Intracellular concentration by LC-MS/MS. Format: in vitro ADME.
Data set [3] deals with PC3 cells. The data set is described as follows: CellTiter-Glo cell viability assay. Format: cell-based. The settings on record: up to 100 μM, 48 hours.
The test system of a further data set is HEK293T cells. As to the kind of experiment: CellTiter-Glo cell viability assay. Format: cell-based. As to conditions: up to 100 μM, 48 hours.
A further data set is described as follows: Mouse pharmacokinetics. Format: in vivo. As to conditions: male swiss albino mice.
The next data set concerns CBX7. As to conditions: cited from earlier work.
Data set [4] addresses CBX2 chromodomain (residues 9-66) (UniProt Q14781). As to the kind of experiment: ITC.
In data set [5] the target is CBX4 chromodomain (residues 8-65), N-terminal His-tag (UniProt O00257). The data set is described as follows: ITC.
The target in data set [6] is CBX6 chromodomain (residues 8-65) (UniProt O95503). As to the kind of experiment: ITC.
Data set [7] concerns the target CBX7 chromodomain (residues 8-62), C-terminal His-tag (UniProt O95931). As to the kind of experiment: ITC.
Data set [8] has as its target CBX8 chromodomain (residues 8-61), N-terminal His-tag (UniProt Q9HC52). The data set is described as follows: ITC.
For data set [9], the target named is CDY1 chromodomain (residues 1-101) (UniProt Q9Y6F8). As to the kind of experiment: ITC.
In data set [10] the target is CDYL1b chromodomain (residues 1-78) (UniProt Q9Y232). The data set is described as follows: ITC.
Data set [11] addresses CDYL2 chromodomain (residues 1-75) (UniProt Q8N8U2). The data set is described as follows: ITC.
The target of data set [12] is CBX7 (AlphaScreen construct). The data set is described as follows: AlphaScreen or HTRF.

Square brackets hold non-standard residues; d marks the D form. Ends that are not written are not given here. Peptide text beside a SMILES is read from it. * marks the point of attachment. Benzoyl(4-tBu) = CC(C)(C)c1ccc(C(=O)*)cc1; Lys(Me3) = C[N+](C)(C)CCCC[C@H](N)C(=O)O; Lys(Et2) = CCN(CC)CCCC[C@H](N)C(=O)O

Sequence of CBX7 chromodomain (residues 8-62), C-terminal His-tag (O95931 8-62): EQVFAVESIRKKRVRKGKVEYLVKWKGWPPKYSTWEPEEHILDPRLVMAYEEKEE
Sequence of CBX6 chromodomain (residues 8-65) (O95503 8-65): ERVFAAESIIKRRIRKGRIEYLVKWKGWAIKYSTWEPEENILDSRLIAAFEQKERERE
Sequence of CDYL2 chromodomain (residues 1-75) (Q8N8U2 1-75): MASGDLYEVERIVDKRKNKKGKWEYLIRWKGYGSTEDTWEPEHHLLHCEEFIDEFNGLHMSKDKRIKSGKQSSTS
Sequence of CBX8 chromodomain (residues 8-61), N-terminal His-tag (Q9HC52 8-61): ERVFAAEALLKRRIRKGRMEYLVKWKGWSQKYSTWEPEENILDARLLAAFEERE
Sequence of CBX2 chromodomain (residues 9-66) (Q14781 9-66): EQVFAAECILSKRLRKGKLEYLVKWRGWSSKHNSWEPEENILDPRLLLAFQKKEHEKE
Sequence of CDY1 chromodomain (residues 1-101) (Q9Y6F8 1-101): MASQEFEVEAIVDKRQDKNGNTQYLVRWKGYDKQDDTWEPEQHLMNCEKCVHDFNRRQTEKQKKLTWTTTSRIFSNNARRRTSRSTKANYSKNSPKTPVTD

`CCN(CC)CCCC[C@H](NC(=O)[C@H](CC(C)C)NC(=O)[C@H](C)NC(=O)[C@H](Cc1ccccc1)NC(=O)c1ccc(C(C)(C)C)cc1)C(=O)N[C@@H](CO)C(=O)OC` [UNC3866] ({Benzoyl(4-tBu)}-FAL[Lys(Et2)]S-OMe) displayed an EC50 in [1] of 340 nM. For the same molecule, in the data set on PC3 cells [2] (PC3 cells treated with 30 μM UNC3866 for 24 hrs, LC-MS/MS), the intracellular concentration was 1.4 ± 0.3 µM. Besides, the “intracellular concentration as % of the extracellular concentration” value with PC3 cells [2] (PC3 cells, 30 μM UNC3866, 24 hours) is listed as roughly 5%. Further, the “toxicity in PC3 cells” value in the data set on PC3 cells [3] is “no toxic effects”. The “toxicity in HEK293T cells” value with HEK293T cells is “no toxic effects”. Moreover, the “clearance (in words)” value in the data set “Mouse pharmacokinetics” is recorded as “moderate”.
On to RGFAL[Lys(Me3)]STHG, for which, in the data set with CBX7, the “affinity for CBX7 relative to the corresponding H3K27me3 peptide” value is recorded as 22 fold. In addition, the Kd at CBX7 (read-out: CBX7 Kd) is 5000 nM.
Take UNC3866 (peptide): the Kd worked out at 1800 nM in data set [4]; 94 nM in data set [5]; 610 nM in [6]; 97 nM in data set [7]; 1200 nM in [8]; 6300 nM in [9]. Moreover, the Kd is 910 nM in [10] and 850 nM in [11]. Also, the IC50 in [12] was found to be 66 nM.
UNC3567 (peptide): the Kd in data set [7] worked out at 6700 nM.
Still for that read-out and setting: then UNC4195 (peptide), with 220 nM.
